Six molecules from paper PMC8688574 (The Journal of Biological Chemistry, 2021) can be followed below.

Series [1] addresses ATL1 N417ins catalytic core, G domain FRET construct. The series is described as follows: intermolecular FRET (G domain FRET). To be noted: equilibrated for 1 h before measurement, read off a plot.
The target in series [2] is T1, catalytic core of human ATL1 WT / N417ins (Homo sapiens, UniProt Q8WXF7).
T1 construct: catalytic core (G + middle domains), WT residues 1-449 (N417ins 1-450), C-terminal His10 tag kept, E. coli BL21(DE3)
T1 sequence (Q8WXF7 1-449): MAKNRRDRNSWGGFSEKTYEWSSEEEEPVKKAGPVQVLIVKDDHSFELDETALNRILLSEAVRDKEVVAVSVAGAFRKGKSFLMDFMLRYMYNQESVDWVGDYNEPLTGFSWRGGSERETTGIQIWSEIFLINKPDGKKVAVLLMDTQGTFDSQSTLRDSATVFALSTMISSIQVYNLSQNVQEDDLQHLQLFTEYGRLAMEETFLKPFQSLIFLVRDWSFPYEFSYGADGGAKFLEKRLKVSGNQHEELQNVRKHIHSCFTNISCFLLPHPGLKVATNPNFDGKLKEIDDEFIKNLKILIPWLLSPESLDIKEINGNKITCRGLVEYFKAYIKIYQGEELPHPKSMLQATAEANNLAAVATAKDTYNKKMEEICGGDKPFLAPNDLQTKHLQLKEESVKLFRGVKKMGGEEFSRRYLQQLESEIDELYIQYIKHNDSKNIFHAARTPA
The series can be described thus: limited proteolysis (proteinase K) protection. It counts as binding. To be noted: 2 mM GDP; MgCl2, pH 7.5; on ice.

Series [3] has as its target ATL1 N417ins catalytic core C375A K400C, labelled on the middle domain with AlexaFluor-488 or AlexaFluor-647. The series can be described thus: intermolecular FRET (middle domain FRET). Particulars: equilibrated for 1 h before measurement, read off a plot.
For series [4], the target named is T1, catalytic core of human ATL1 WT / N417ins. The series is described as follows: SEC-MALS, nucleotide-dependent dimerization. It counts as binding. Particulars: 2 mM GppNHp; 4 mM MgCl2, pH 7.5; 50 μM protein. (In general: In gel filtration, larger molecules generally elute earlier.)
Series [5] has as its target T2, catalytic core of human ATL1 WT / N417ins (Homo sapiens, UniProt Q8WXF7).
T2 construct: catalytic core (G + middle domains), WT residues 1-449 (N417ins 1-450), C-terminal His10 tag kept, E. coli BL21(DE3)
T2 sequence (Q8WXF7 with tags, fused parts or gaps INS416N): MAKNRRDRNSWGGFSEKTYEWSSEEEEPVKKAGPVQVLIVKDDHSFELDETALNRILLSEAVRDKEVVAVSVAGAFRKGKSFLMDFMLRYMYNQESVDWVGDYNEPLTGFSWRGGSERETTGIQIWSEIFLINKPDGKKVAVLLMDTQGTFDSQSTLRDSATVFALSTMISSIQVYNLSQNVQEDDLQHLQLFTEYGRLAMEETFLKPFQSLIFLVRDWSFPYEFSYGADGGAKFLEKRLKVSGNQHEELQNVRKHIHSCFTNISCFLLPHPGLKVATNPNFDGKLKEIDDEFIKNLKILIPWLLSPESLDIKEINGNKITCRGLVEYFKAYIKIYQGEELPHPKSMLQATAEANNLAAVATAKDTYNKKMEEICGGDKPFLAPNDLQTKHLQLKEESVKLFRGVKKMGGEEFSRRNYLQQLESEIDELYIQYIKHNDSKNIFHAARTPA
The series can be described thus: SEC-MALS, nucleotide-dependent dimerization. Format: binding. To be noted: 2 mM GppNHp; 4 mM MgCl2, pH 7.5; 50 μM protein. This is another data set of the same source.

Series [6] deals with the molecule itself. The series can be described thus: SEC-MALS; 50 μM protein loaded, preincubated with 2 mM GppNHp; Superdex Increase 200 10/300 GL; 25 mM Tris-HCl pH 7.5, 100 mM NaCl, 2 mM EGTA, 4 mM MgCl2.
Where [7] appears, read: apo (no nucleotide), parent: est. 0.0083.

Take “ATL1 WT catalytic core, G domain FRET construct N417ins”: the response was 0.011 in series [1] (GDP, parent: est. 0.014); 0.078 in series [1] (GDP•AlF4-, parent: est. 0.076); 0.009 in series [1] (setting [7]). As for `Nc1nc2c(ncn2[C@@H]2O[C@H](COP(=O)(O)OP(=O)(O)O)[C@@H](O)[C@H]2O)c(=O)[nH]1` [GDP], in series [2], the “limited proteolysis (proteinase K) protection” value was “when bound to GDP, the WT protein is largely protected from degradation”. With “ATL1 WT catalytic core, middle domain FRET construct N417ins”, the response in series [3] (GDP, parent: est. 0.0098) came to 0.011; in series [3] (GDP•AlF4-, parent: est. 0.061), 0.066; in series [3] (setting [7]), 0.009. Turning to `Nc1nc2c(ncn2[C@@H]2O[C@H](COP(=O)(O)OP(=O)(O)NP(=O)(O)O)[C@@H](O)[C@H]2O)c(=O)[nH]1` [GppNHp], the “SEC-MALS, nucleotide-dependent dimerization” value in series [4] is “dimerized in the presence of GppNHp and GDP•AlF4^−”; in series [5], “Only a minor fraction of the mutant protein eluted as a monomer upon incubation with GppNHp”.

B1: human ATL1 WT catalytic core (residues 1–449) (domain or fragment, UniProt Q8WXF7-1 1-449, looked up)
chain: T1 sequence (Q8WXF7 1-449)
notes: atlastin-1 (ATL1/SPG3A), human, catalytic core of G and middle domains, residues 1-449; pET21 vector; Monomer without nucleotide or with GDP, dimer with GppNHp or GDP•AlF4-; Theoretical monomer mass 52.8 kDa; also called atlastin-1; SPG3A; source: E. coli BL21(DE3), purified (Ni-NTA, desalting, S200 gel filtration); not shown: His10, C-terminal, kept
As for B1, the stoichiometry N (as a rule, a count of units in the complex or per binding partner) in series [6] is 2.

B2: human ATL1 N417ins catalytic core (residues 1–450) (domain or fragment, UniProt Q8WXF7-1 1-450, looked up)
chain: MAKNRRDRNSWGGFSEKTYEWSSEEEEPVKKAGPVQVLIVKDDHSFELDETALNRILLSEAVRDKEVVAVSVAGAFRKGKSFLMDFMLRYMYNQESVDWVGDYNEPLTGFSWRGGSERETTGIQIWSEIFLINKPDGKKVAVLLMDTQGTFDSQSTLRDSATVFALSTMISSIQVYNLSQNVQEDDLQHLQLFTEYGRLAMEETFLKPFQSLIFLVRDWSFPYEFSYGADGGAKFLEKRLKVSGNQHEELQNVRKHIHSCFTNISCFLLPHPGLKVATNPNFDGKLKEIDDEFIKNLKILIPWLLSPESLDIKEINGNKITCRGLVEYFKAYIKIYQGEELPHPKSMLQATAEANNLAAVATAKDTYNKKMEEICGGDKPFLAPNDLQTKHLQLKEESVKLFRGVKKMGGEEFSRRNYLQQLESEIDELYIQYIKHNDSKNIFHAARTPAT
notes: atlastin-1 (ATL1/SPG3A), human, catalytic core with the patient's in-frame insertion of an asparagine between R416 and Y417; residues 1-450. numbers count on: the mutant protein with the extra residue (1-449 of the wild type plus N417); pET21 vector; construct for enzyme assays, SEC-MALS and tethering; Theoretical monomer mass 52.9 kDa; also called N417ins mutant protein; …
For B2, the “stoichiometry N” value in series [6] stood at 2.
